The RNAGym collection of RNA variant scans (doi:10.1073/pnas.2313332121)
Variants at the floor of the assay were thinned out.

B1: TPR 5TU (parent)
chain: GGAUCUUCUCGAUCUAACAAAAAAGACAAAUCUGCCACAAAGCUUGAGAGCAUCUUCGGAUGCAGAGGCGGCAGCCUUCGGUGGCGCGAUAGCGCCAACGUUCUCAACUAUGACACGCAAAACGCGUGCUCCGUUGAAUGGAGUUUAUCAUG

Variants of: B1
Assay: polymerase ribozyme fitness, log enrichment relative to wild type (log ratio); higher = more active; in vitro selection for triplet polymerase activity
Procedure, shortened: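 Mutant libraries of each subunit of a heterodimeric triplet polymerase ribozyme were built by PCR and transcribed. Each library went through one round of in vitro selection in triplicate: annealing with biotinylated primer, partner subunit and triplets, frozen incubation at −7 °C, gel excision of extended constructs, streptavidin-bead capture and RT-PCR. Input and output libraries were Illumina-sequenced; only genotypes with ≥10 input reads and ≥1 read per output were kept. Fitness is log2(genotype enrichment/wild-type enrichment), using inverse-variance-weighted replicate averages.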

Row | Variant | polymerase ribozyme fitness (log ratio)
1 | U134A U148G | ≤ -4.2
2 | A120U A121U U144G C149G | -3.46
3 | U139C U144A | -3.36
4 | G117A C123A A150G | -1.18
5 | C116U C125G | 1.23
6 | C116U C125U U146C | -0.74
7 | C132U C149G | -3.84
8 | G124C U135A | -1.84
9 | A137U G141U | -3.93
10 | A137U G141A | -3.24
11 | A122G G124A U127A | -3.53
12 | A122C G126A | -0.186
13 | G126A C129G | -3.97
14 | A121C G128C | -2.44
15 | A137U G143U | -3.39
16 | G124A A137G | -1.05
17 | A120G G128U | -2.36
18 | A137U | -3.39
19 | A137C | -3.09
20 | A137G | -1.15
21 | C116U G124A A142G | -2.45
22 | U146G A150C | ≤ -4.2
23 | A137G U145G | -1.02
24 | C118A A119U | -0.617

Row | Variant | polymerase ribozyme fitness (log ratio)
25 | A119U A137U | -4.12
26 | C131G G136U G141U G143U | ≤ -4.2
27 | A138U G141C | -3.88
28 | A142G A147U | -0.49
29 | U134A G141U | -2.41
30 | C131G G133C G136U G141U | -3.43
31 | G133A G141U | -3.08
32 | C118G A119U G141U | -0.349
33 | A137U U148G | ≤ -4.2
34 | C129A U148G | -4.11
35 | C131U U144G | -0.864
36 | A120C G136U G140C | -4.19
37 | C125U A147U | -1.83
38 | A137G U144A | -3.01
39 | G126A A150G | -2.66
40 | G143C U145G | -1.8
41 | U139G U148A | -2.73
42 | C116U U148A | -3.85
43 | C118U U148G | -3.62
44 | C118U U148A | -2.79
45 | A119U C129U | 0.265
46 | C132U A150G | -2.47
47 | C116U C118A U139G | 0.554
48 | G140A U144A | -3.68

Row | Variant | polymerase ribozyme fitness (log ratio)
49 | U145G U151G | -4.07
50 | G124A G140C | -3.89
51 | C116U A142U | -0.344
52 | U134A A142G | -3.04
53 | U134A A142C | -2.66
54 | C129A G143A A150G | -3.66
55 | U127G A137U | -4.19
56 | G117A C123A | 0.34
57 | C116U A119U | -0.298
58 | C116U A119G | -0.704
59 | C118A U144A | 0.0258
60 | G117U A137G | -1.34
61 | G141U G143A | -2.79
62 | C123A | -0.404
63 | C123U | 0.225
64 | C123G | -0.337
65 | G143A U151G | ≤ -4.2
66 | G124A A150G | -0.501
67 | A119C G143A | -0.422
68 | U127A U134C G141C | -3.82
69 | G126U C132U | -0.717
70 | A121G U134G | -2.56
71 | C118G A122C G141C | -2.43
72 | G124C C132A | -2.4

Row | Variant | polymerase ribozyme fitness (log ratio)
73 | C131G A137U | -4.16
74 | C118U U146C | -1.27
75 | U139A G143U U146G | -3.74
76 | U127G U144G | -1.7
77 | A142G U146C | -3.25
78 | U144G U145A | 0.571
79 | U144C A150C | -4.19
80 | G128A G141A G143U U144G U151A | ≤ -4.2
81 | C118G C129U | -1.77
82 | C116U G141A | -1.01
83 | U135G U144G | -2.41
84 | G128U U144C | -3.96
85 | C118G A122C | -1.49
86 | G133A U134G | -2.81
87 | C132A | -2.06
88 | C132U | -0.687
89 | C132G | -3.15
90 | C125U U134G A142C | -3.76
91 | G117U G143U | -2.57
92 | A120G G141C A147U | -1.01
93 | G136A A147G | -1.36
94 | A120U A137C A138U | -4.19
95 | C118G U144A | -0.0459
96 | A120G A137C | -4.08

Row | Variant | polymerase ribozyme fitness (log ratio)
97 | G126A C132G | -2.68
98 | U127G G136A | -2.89
99 | G140A G143U | ≤ -4.2
100 | C118U A142C | -0.682
101 | C116U U146C | -0.11
102 | A122U U146C | -0.714
103 | G124A U148C | -0.766
104 | G124A U148G | -3.69
105 | U146G | -0.513
106 | U146C | 0.00807
107 | U146A | -0.305
108 | U148G U151A | -3.95
109 | A119U U144A | -0.171
110 | U135A G143A A147G | ≤ -4.2
111 | A138U A147U | -3.38
112 | G124U U135C | -2.36
113 | G140U A147U | -2.9
114 | G141A U144C | -3.08
115 | A122C C149U | -1.16
116 | G126A C132U A142C | ≤ -4.2
117 | U127G G141A | -3.27
118 | C116U A119U U135C | -2.59
119 | G126A G143A | -1.92
120 | G128C A150U | -4

Row | Variant | polymerase ribozyme fitness (log ratio)
121 | U127G U134A | -4.18
122 | C118G A119G | 0.312
123 | C123U A142U | -1.13
124 | A150C G152A | -3
125 | C118U U135C | -2.19
126 | A119C U139C | -3.46
127 | U139A U144A | -4.15
128 | C129U | -0.0537
129 | C129G | -2.45
130 | C129A | -2.46
131 | U135G A137U | -4.04
132 | G117C A120G | 0.308
133 | A138C U139A | -3.78
134 | A122U U135C A137G | -3.91
135 | U130C U144C A147C | -1.95
136 | G128U A142C | -3.6
137 | A119U U127C | -2.06
138 | C129G U134G | -3.81
139 | A122G G133U | -3.59
140 | G124C G141C | -1.16
141 | C118G G141A | -0.0985
142 | A150U | 1.3
143 | A150C | -2.71
144 | A150G | -0.734

Row | Variant | polymerase ribozyme fitness (log ratio)
145 | A122G U144G | 0.851
146 | C116U A122U | -0.326
147 | G128A G133A U134C A150G | -3.52
148 | G136U U144G | -3.29
149 | U139G A150C | -3.84
150 | G124U A142C | -1.75
151 | C125U G126A | -3.14
152 | U134A A137G | -3.22
153 | C125U G141C | -3.85
154 | C116U U130C | 1.13
155 | G126C A150G | -2.81
156 | G117U U145G | -3.12
157 | G126U G152U | -2.47
158 | A137C A138G | -3.68
159 | G124U G143U U148G | ≤ -4.2
160 | U145C U146G | 0.121
161 | U135A C149U | -0.66
162 | A119G U146A | -0.399
163 | C116U U144A | -0.259
164 | A119G | -0.045
165 | A119C | -0.385
166 | A119U | -0.546
167 | U127G A138G A142C | -3.48
168 | G141C A150G | -3.78

Row | Variant | polymerase ribozyme fitness (log ratio)
169 | C149G | -2.78
170 | C149A | -3.33
171 | C149U | -0.847
172 | C118G A150G | -2.14
173 | G128U A137U | -3.34
174 | U135A A147U | -0.75
175 | A142C U144A U148G | ≤ -4.2
176 | A121U C125U G143C U146C | -3.38
177 | C123U U145A | 0.729
178 | A122G A138G C149U | -4
179 | C125U A150U | -0.413
180 | C118A A121C U144C | -0.821
181 | A121U C132U U146A | -0.968
182 | G136C U151G | ≤ -4.2
183 | G141A C149G | -4.13
184 | A122G U127A G128A | -4.01
185 | A122G C125A U134G | -2.92
186 | U135G G141U U146G | ≤ -4.2
187 | G124A G136A | -0.107
188 | G124C A142U | -0.985
189 | A121U U145C | 1.15
190 | A120C C125G G133U | -3.85
191 | U134C A142C | -0.0581
192 | G140A | -2.67

Row | Variant | polymerase ribozyme fitness (log ratio)
193 | G140U | -2.62
194 | G140C | -3.16
195 | G141A | 0.689
196 | G141U | 1.61
197 | G141C | -0.0848
198 | C116U A121U G124U | -2.02
199 | C116U U134C | -0.00566
200 | U151A | -3.44
201 | U151G | -3.49
202 | U151C | -2.78
203 | C116U U135A | -0.565
204 | C132U G152U | -2.75
205 | A120U U145C | -0.0409
206 | C123U G124A U144C | 0.0575
207 | A121C C125U G143U | -2.41
208 | A122U G141C | 0.115
209 | U146G A150G G152A | -1.84
210 | G141U A142C | -3.58
211 | A138U U151C | -4.01
212 | C123A G140A | -3.65
213 | A138C | -3.67
214 | A138G | -1.9
215 | A138U | -3.87
216 | C125A A147U | -0.189

Row | Variant | polymerase ribozyme fitness (log ratio)
217 | U135A G136C | -4.14
218 | A120G G141A | 1.23
219 | C118U U145A | -0.179
220 | A121U C125U | -0.154
221 | G117A A142U | -4.13
222 | G140U U146C | -3.33
223 | G140U U146G | -3.88
224 | G124A C125G | 0.356
225 | G124C G140C | -4.05
226 | G126A | 0.682
227 | G126C | 1.28
228 | G126U | 0.31
229 | C131U | 1.18
230 | C131G | -2.79
231 | C131A | -1.77
232 | A122U C149U | -0.616
233 | C118U G140U | -3.11
234 | C116U | 0.103
235 | U127C C131A G152U | -3.91
236 | G117A U144C | -2.9
237 | C132U U135A | -2.46
